Target: HSPA5 protein (wild type, in vitro systems, ITC and SPR) (UniProt P20029 20-655)
Test: ITC

Sequence of HSPA5 protein (wild type, in vitro systems, ITC and SPR) (P20029 20-655): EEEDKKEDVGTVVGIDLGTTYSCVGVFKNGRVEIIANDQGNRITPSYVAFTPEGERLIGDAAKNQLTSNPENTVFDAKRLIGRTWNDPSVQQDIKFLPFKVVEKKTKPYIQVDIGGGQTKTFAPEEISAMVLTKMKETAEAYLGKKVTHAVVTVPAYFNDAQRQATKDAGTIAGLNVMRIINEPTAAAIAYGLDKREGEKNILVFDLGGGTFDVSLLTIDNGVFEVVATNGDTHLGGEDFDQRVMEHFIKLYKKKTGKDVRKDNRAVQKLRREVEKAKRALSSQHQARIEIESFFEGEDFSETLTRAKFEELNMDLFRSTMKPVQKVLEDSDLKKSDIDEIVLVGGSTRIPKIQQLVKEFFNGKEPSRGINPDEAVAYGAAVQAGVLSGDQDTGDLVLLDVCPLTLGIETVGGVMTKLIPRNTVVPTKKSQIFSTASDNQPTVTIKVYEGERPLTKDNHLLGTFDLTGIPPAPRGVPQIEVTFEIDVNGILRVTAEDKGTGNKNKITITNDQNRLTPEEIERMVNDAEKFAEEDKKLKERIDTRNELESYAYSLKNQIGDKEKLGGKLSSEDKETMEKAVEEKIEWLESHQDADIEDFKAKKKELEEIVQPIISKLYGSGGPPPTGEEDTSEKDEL

| Binder | Kd [nM] |
| --- | --- |
| SCNN1B protein (in vitro ubiquitination system, ITC and SPR) (natural protein) MPVKKYLLKCLHRLQKGPGYTYKELLVWYCNNTNTHGPKRIICEGPKKKAMWFLLTLLFACLVCWQWGVFIQTYLSWEVSVSLSMGFKTMNFPAVTVCNSSPFQYSKVKHLLKDLDELMEAVLEKILAPEASHSNTTRTLNFTIWNHTPLVLIDERNPDHPVVLNLFGDSHNSSNPAPGSTCNAQGCKVAMRLCSANGTVCTLRNFTSATQAVTEWYILQATNIFSQVLPQDLVGMGYAPDRIILACLFGTEPCSHRNFTPIFYPDYGNCYIFNWGMTEETLPSANPGTEFGLKLILDIGQEDYVPFLASTAGARLMLHEQRTYPFIREEGIYAMAGTETSIGVLVDKLQRKGEPYSPCTMNGSDVAIKNLYSVYNTTYSIQACLHSCFQDHMIRNCSCGHYLYPLPEGEKYCNNRDFPDWAYCYLNLQMSVTQRETCLSMCKESCNDTQYKMTISMADWPSEASEDWILHVLSQERDQSSNITLSRKGIVKLNIYFQEFNYRTIEESPANNIVWLLSNLGGQFGFWMGGSVLCLIEFGEIIIDFIWITIIKLVASCKGLRRRRPQAPYTGPPPTVAELVEAHTNFGFQPDTTSCRPHGEVYPDQQTLPIPGTPPPNYDSLRLQPLDTMESDSEVEAI | 860 |
| ATAT1 protein (in vitro acetylation system, ITC and SPR) (enzyme) MEFPFDVDALFPERITVLDQHLRPPARRPGTTTPARVDLQQQIMTIVDELGKASAKAQHLPAPITSALRMQSNRHVIYILKDTSARPAGKGAIIGFLKVGYKKLFVLDDREAHNEVEPLCILDFYIHESVQRHGHGRELFQHMLQKERVEPHQLAIDRPSPKLLKFLNKHYNLETTVPQVNNFVIFEGFFAHQHRPPTSSLRATRHSRAAVADPIPAAPARKLPPKRAEGDIKPYSSSDREFLKVAVEPPWPLNRAPRRATPPAHPPPRSSSLGNSPDRGPLRPFVPEQELLRSLRLCPPHPTARLLLATDPGGSPAQRRRTRGTPWGLVAQSCHYSRHGGFNTSFLGTGNQERKQGEQEAEDRSASEDRVLLLDGSGEEPTQTGAPRAQAPPPQSWTVGGDIMNARVIRNLQERRSTRPW | 110 |
